Measured values reported in patent US20170320947A1 (published 2017).

How the values were obtained:
[1] = molecular target: T1, Cyno PSMA; assay: BLI (Octet)
T1 chain: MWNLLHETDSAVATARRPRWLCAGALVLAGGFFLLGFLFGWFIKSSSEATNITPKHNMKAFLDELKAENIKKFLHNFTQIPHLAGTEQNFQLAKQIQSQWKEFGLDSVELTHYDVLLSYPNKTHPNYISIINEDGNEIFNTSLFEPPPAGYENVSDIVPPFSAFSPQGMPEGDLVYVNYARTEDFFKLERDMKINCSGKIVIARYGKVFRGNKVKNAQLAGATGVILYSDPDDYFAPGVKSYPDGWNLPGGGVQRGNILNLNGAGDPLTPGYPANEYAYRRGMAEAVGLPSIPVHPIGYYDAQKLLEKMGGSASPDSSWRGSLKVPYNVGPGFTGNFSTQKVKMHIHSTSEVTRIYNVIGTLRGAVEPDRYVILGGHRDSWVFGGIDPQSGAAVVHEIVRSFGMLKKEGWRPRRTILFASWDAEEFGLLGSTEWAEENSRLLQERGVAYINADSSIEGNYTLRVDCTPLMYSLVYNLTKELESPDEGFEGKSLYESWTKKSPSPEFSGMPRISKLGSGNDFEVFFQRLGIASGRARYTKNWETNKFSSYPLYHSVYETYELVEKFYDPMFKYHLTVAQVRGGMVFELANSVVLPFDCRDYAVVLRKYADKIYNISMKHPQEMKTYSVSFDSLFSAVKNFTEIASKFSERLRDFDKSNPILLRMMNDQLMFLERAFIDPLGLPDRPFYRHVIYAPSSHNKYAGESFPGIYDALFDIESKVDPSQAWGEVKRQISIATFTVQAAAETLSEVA

[2] = molecular target: Human PSMA; assay: BLI (Octet)

B1: XENP14484 (bispecific antibody)
heavy: EVQLVQSGAEVKKPGASVKVSCKTSGYTFTEYTIHWVRQAPGQSLEWMGNINPNNGGTTYNQKFQGRVTITVDKSTSTAYMELSSLRSEDTAVYYCAAGWNFDYWGQGTLVTVSSASTKGPSVFPLAPSSKSTSGGTAALGCLVKDYFPEPVTVSWNSGALTSGVHTFPAVLQSSGLYSLSSVVTVPSSSLGTQTYICNVNHKPSDTKVDKKVEPKSCDKTHTCPPCPAPPVAGPSVFLFPPKPKDTLMISRTPEVTCVVVDVKHEDPEVKFNWYVDGVEVHNAKTKPREEEYNSTYRVVSVLTVLHQDWLNGKEYKCKVSNKALPAPIEKTISKAKGQPREPQVYTLPPSREEMTKNQVSLTCDVSGFYPSDIAVEWESDGQPENNYKTTPPVLDSDGSFFLYSKLTVDKSRWEQGDVFSCSVMHEALHNHYTQKSLSLSPGK
scFv-Fc: not shown
light: DIVMTQSPDSLAVSLGERATLSCRASQDVGTAVDWYQQKPDQSPKLLIYWASTRHTGVPDRFTGSGSGTDFTLTISSLQAEDVAVYFCQQYNSYPLTFGAGTKVEIKRTVAAPSVFIFPPSDEQLKSGTASVVCLLNNFYPREAKVQWKVDNALQSGNSQESVTEQDSKDSTYSLSSTLTLSKADYEKHKVYACEVTHQGLSSPVTKSFNRGEC
Kd [1]: 0.2 nM
Kd [2]: 0.4 nM
